T1: recombinant human CD25 (rhCD25), NS/0-expressed recombinant protein from R&D Systems (cat#223-2A/CF) (human, UniProt P01589 22-213, limits assumed)
T1 construct: Coated on ELISA plates, and amine-coupled to a CM-5 chip for SPR; also called hrCD25; soluble CD25
T1 sequence (looked up): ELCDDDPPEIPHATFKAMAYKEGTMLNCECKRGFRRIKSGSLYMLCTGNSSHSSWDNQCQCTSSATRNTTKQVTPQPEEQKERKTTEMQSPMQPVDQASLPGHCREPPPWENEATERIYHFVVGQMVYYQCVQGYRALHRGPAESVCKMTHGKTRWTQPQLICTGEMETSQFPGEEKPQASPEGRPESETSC


Tests used:
[1] = biological target: T1, recombinant human CD25 (rhCD25), …; assay: competition ELISA on coated rhCD25 (100 ng/ml); antibody supernatant added 10 min before rIL-2-biotin (50 ng/ml); streptavidin-poly-HRP/ABTS, OD405; blocked ligand: biotinylated IL-2
Procedure: After washing (3×) the plates with PBST, 100 μl of sample antibody (concentration range: 10, 33, and 100 ng/ml) was added. […] After washing the plates 3× (in PBST), plates were incubated with streptavidin-poly-HRP (dilute 1:10,000 from stock) in PBS, and 100 μl was added to each well (1 hour, RT). After washing the plates (3× in PBST), 10 mg ABTS (Roche) per 10 ml ABTS buffer (Roche) was made and 100 μl added to each well.

[2] = biological target: T1, recombinant human CD25 (rhCD25), …; assay: SPR, BIAcore 3000, 25 C; rhCD25 amine-coupled to CM-5 chip at low density, antibody as analyte, 1:1 Langmuir model
Procedure: Affinity analyses were assessed by monitoring changes in surface plasmon resonance using a BIAcore 3000 instrument. A BIAcore 3000 and BIAcore 3000 software control (BIAcore, Uppsala, Sweden, lot#BR-1100-43) was used. […] After blocking the residual binding sites of the activated sensor chip using ethanol-amine-HCl, a kinetic analysis was performed at 25° C. […] The results were visualized using a BIAcore 3000 (Bio-tek Instruments) and analyzed using the BIAevaluation Software 3.1 (BIAcore, Uppsala, Sweden) and Languir binding 1:1 was used as pre-fixed model.

Row | Binder | binding result [1] | Kd [2]
1 | human monoclonal antibody AB1 (antibody, human IgG1, V domains shown, Human IgG1,kappa from a hybridoma (HuMAb mouse)) VH: QVQLVQSGAEVKKPGSSVKVSCKASGGTFSRYPINWVRQAPGQGLEWMGRIIPILGIADYAQRFQGRVTITADKSTNTAYMELSSLRSEDTAVYYCARRDWGDYWGQGTLVTVSS VL: not shown | binds | –
2 | human monoclonal antibody AB12 (antibody, V domains shown, Human IgG1,kappa from a hybridoma (HuMAb mouse); also called AB12-FITC; FITC-labeled AB12) VH: QVQLVQSGAEVKKPGSSVKVSCKASGGTFSRYIINWVRQAPGQGLEWMGRIIPILGVENYAQKFQGRVTITADKSTSTAYMELSSLRSEDTAVYYCARKDWFDYWGQGTLVTVSS VL: not shown | – | 0.0474 nM
3 | human monoclonal antibody AB7 (antibody, V domains shown, Human IgG1,kappa from a hybridoma (HuMAb mouse)) VH: QVQLVQSGAEVKKPGSSVKVSCKASGGTFSRYAINWVRQAPGQGLEWMGRIIPILDIADYAQKFQDRVTITADKSTNTAYMELSSLRSEDTAVYYCARKDWFDPWGQGTLVTVSS VL: not shown | binds | –
4 | human monoclonal antibody AB11 (antibody, human IgG1, V domains shown, Human IgG1,kappa from a hybridoma (HuMAb mouse)) VH: QVQLVQSGAEVKKPGSSVKVSCKASGGTFSRYPINWVRQAPGQGLEWMGRIIPILGIADYAQRFQGRVTITADKFTNTAYMELSSLRSEDTAVYYCARRDWGDYWGQGTLVTVSS VL: not shown | binds | –

From US20090081219A1 (Genmab, published 2009)
